Assay results taken from the supplement of paper PMC7877785.
± gives the uncertainty stated by the source.

Test: self-splicing fitness, log relative to wild type (ln ratio); higher = more splicing; Tetrahymena group I intron in knt gene, E. coli kanamycin selection, DiMSum; sequences stand for … in CUCUCU…GGAGGGAAAAGUUAUCAGGCAUGCACCUGGUAGCUAGUCUUUAAACCAAUAGAUUGCAUCGGUUUAAAAGGCAAGACCGUCAAAUUGCGGGAAAGGGGUCAACAGCCGUUCAGUACCAAGUCUCAGGGGAAACUUUGAGAUGGCCUUGCAAAGGGUAUGGUAAUAAGCUGACGGACAUGGUCCUAACCACGCAGCCAAGUCCUAAGUCAACAGAUCUUCUGUUGAUAUGGAUGCAGUUCACAGACUAAAUGUCGGUCGGGGAAGAUGUAUUCUUCUCAUAAGAUAUAGUCGGACCUCUCCUUAAUGGGAGCUAGCGGAUGAAGUGAUGCAACACUGGAGCCGCUGGGAACUAAUUUGUAUGCGAAAGUAUAUUGAUUAGUUUUGGAGUACUCGUGGUCG
Summary of the method: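 Library with all eight P1ex-region intron nucleotides randomised, intron inside the knt kanamycin-resistance gene on pET-22b(+), in E. coli BL21(DE3). Cells grew overnight at 37°C or 30°C on LB agar with or without 25 μg/mL kanamycin (plus 100 μg/mL carbenicillin, 50 μM IPTG, 0.2% rhamnose), in six replicate transformations. Pooled colonies were amplicon-sequenced on Illumina HiSeq 2500. DiMSum fitness is the error-weighted combination of wild-type-normalised replicate fold changes, kanamycin versus none.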

Row | Sequence | self-splicing fitness (ln) (30 °C) | self-splicing fitness (ln) (37 °C)
1 | GACUAGCAAUAUUACGGUAA | -0.126 ± 0.084 | -0.197 ± 0.078
2 | ACUUAGCAAUAUUACGCCUG | -1.12 ± 0.18 | -0.484 ± 0.19
3 | UCGAAGCAAUAUUACGGGGU | -4.05 ± 0.21 | -2.25 ± 0.17
4 | ACGAAGCAAUAUUACGGGUU | -3.63 ± 0.15 | -2.58 ± 0.14
5 | GCACAGCAAUAUUACGAACG | -1.53 ± 0.1 | -0.558 ± 0.13
6 | ACUUAGCAAUAUUACGCAUA | -1.74 ± 0.12 | -1.42 ± 0.14
7 | AACCAGCAAUAUUACGGAAU | -2.06 ± 0.08 | -0.602 ± 0.091
8 | AUUAAGCAAUAUUACGGCGA | -0.67 ± 0.12 | -0.121 ± 0.14
9 | AUAGAGCAAUAUUACGCAGC | -2.33 ± 0.45 | –
10 | ACCCAGCAAUAUUACGCUAG | -2.81 ± 0.1 | -1.77 ± 0.12
11 | UGUCAGCAAUAUUACGGGCC | -0.854 ± 0.12 | -0.00781 ± 0.16
12 | GCGGAGCAAUAUUACGUUUG | -2.86 ± 0.17 | -2.48 ± 0.27
13 | UUCGAGCAAUAUUACGUCAU | -2.56 ± 0.21 | -3.46 ± 0.46
14 | CCGGAGCAAUAUUACGCUGG | -1.99 ± 0.21 | –
15 | CAGCAGCAAUAUUACGCAAC | -3.45 ± 0.28 | -1.37 ± 0.25
16 | UGAAAGCAAUAUUACGAAUU | -1.7 ± 0.26 | -1.66 ± 0.29
17 | GACAAGCAAUAUUACGCACC | -1.43 ± 0.14 | -0.635 ± 0.19
18 | CCCUAGCAAUAUUACGUUCG | -3.63 ± 0.27 | -2.64 ± 0.33
19 | GUACAGCAAUAUUACGUACG | -4.18 ± 0.31 | -2.2 ± 0.19

Row | Sequence | self-splicing fitness (ln) (30 °C) | self-splicing fitness (ln) (37 °C)
20 | AGCUAGCAAUAUUACGUGUA | -3.86 ± 0.18 | -1.48 ± 0.12
21 | CAUCAGCAAUAUUACGGAUC | -1.79 ± 0.088 | 0.216 ± 0.11
22 | UAUGAGCAAUAUUACGUACG | -2.35 ± 0.19 | -1.34 ± 0.21
23 | UUCCAGCAAUAUUACGACGC | -3.25 ± 0.24 | -3.03 ± 0.17
24 | AGUGAGCAAUAUUACGACUU | -1.18 ± 0.17 | -0.93 ± 0.19
25 | CGAGAGCAAUAUUACGUACC | -3.27 ± 0.38 | -1.7 ± 0.41
26 | CUCCAGCAAUAUUACGGCGU | -3.61 ± 0.17 | -3.4 ± 0.23
27 | CCACAGCAAUAUUACGGCCA | -3.79 ± 0.29 | -2.75 ± 0.27
28 | AGACAGCAAUAUUACGCAGU | -3.96 ± 0.2 | -3.04 ± 0.27
29 | GUGCAGCAAUAUUACGCCAA | -1.41 ± 0.14 | -1.72 ± 0.14
30 | UGCAAGCAAUAUUACGCUUU | -3.45 ± 0.21 | -1.85 ± 0.2
31 | CUAGAGCAAUAUUACGUGGG | -0.857 ± 0.13 | -0.906 ± 0.16
32 | CUGCAGCAAUAUUACGCCGU | – | -1.3 ± 0.31
33 | UGCUAGCAAUAUUACGGACU | -0.341 ± 0.1 | -0.639 ± 0.088
34 | UUUAAGCAAUAUUACGACCG | -0.889 ± 0.18 | 0.563 ± 0.26
35 | CACGAGCAAUAUUACGGCAC | -2.97 ± 0.23 | -2.43 ± 0.25
36 | ACGAAGCAAUAUUACGGCCU | 0.00118 ± 0.097 | 0.0498 ± 0.13
37 | CCUCAGCAAUAUUACGAAGU | -3.54 ± 0.17 | -1.88 ± 0.15
38 | CAUUAGCAAUAUUACGUAAU | -2.73 ± 0.19 | -1.96 ± 0.21
